One may read the IC50 as the midpoint of a concentration-inhibition curve.

“Also recorded” adds a separate entry of the source.

This note sets out measurements from patent US20220288204A1, “DOSAGE AND ADMINISTRATION OF ANTI-ERBB3 (HER3) MONOCLONAL ANTIBODIES TO TREAT TUMORS ASSOCIATED WITH NEUREGULIN 1 (NRG1) GENE FUSIONS” (ELEVATION ONCOLOGY, INC., priority 2021, published 2022).

In one assay the test system is HBECp53 cells. Nature of the assay: AlamarBlue viability dose-response (growth inhibition). The note with it: 96 hours. In kind it is cell-based, human. On the procedure:
(§1) Expression of […] (FIG. 1A) or SLC3A2-NRG1 (FIG. 2B) fusions in MDA-MB-175-VII and LUAD-0061AS3 cells, respectively, was determined by RT-PCR. The HBECp53 (NRG1 fusion negative) and HBECp53-SLC3A2-NRG1 cells were used as negative and positive controls, respectively. […] Viability results represent the mean±SEM of 2-5 independent experiments in which each condition was assayed in triplicate determinations. Viability data were analyzed by nonlinear regression and the IC50 values for growth inhibition and the 95% confidence interval were determined with GraphPad Prism 8. […] Results represent the mean±SD for one experiment in which each condition was assayed in duplicate.
(§2) For the time-course experiments, cells were plated at a density of 5,000 (HCC-95) or 10,000 (all others) cells per well in 12-well tissue culture plates, and then treated 24 hours later (time 0) with the respective agents. […] Cells were trypsinized and counted at the relevant time-point shown on the graphs. For dose-response studies, cells were plated at a density of 7,500-10,000 cells in white clear-bottom 96-well plates in a volume of […] complete growth media and […] chemicals added at 10× concentration (to achieve 1× concentration) in a final volume of […]. After 96-hour incubation, […] AlamarBlue cell viability reagent was added to achieve a final concentration of 10%. AlamarBlue is a cell permeable […] dye that is reduced when it enters the mitochondria and emits fluorescence at a different wavelength (Gloeckner H, J. Immunol. Methods 2001; 252:131-8). Fluorescence was measured (excitation, 530 nm and emission, 585 nm) using a […] Spectramax M2 Fluorescence Plate Reader, as described previously (Somwar R, J. Biomol. Screen 2009; 14:1176-84). In each experiment, background fluorescence was determined in cells treated with […] of the 20S proteasome inhibitor, carfilzomib, which is toxic to most cells at high concentrations, and was subtracted from all values. There were 3-4 replicates of each condition. Relative IC50 values and 95% confidence interval values were determined by nonlinear regression analysis using GraphPad Prism 8 software using either a variable slope model or in cases where inhibition was only partial, a three-parameter fit was used. […] Each condition was assayed in triplicate in 2-5 independent experiments.
(§3) Cells expressing NRG1 fusions rely on activation of HER3 for growth and survival. […] The estimated IC50 values obtained for growth inhibition are determined.
Background: The colour change of resazurin is a common sign of viable cells or microbes.

Another assay deals with LUAD-0061AS3 cells. Described as above. In kind it is cell-based, human. Particulars: 96 hours. Here is the method: as §1, §2, §3
For the next assay, the system named is MCF-7 cells. The assay is described as above. In kind it is cell-based, human. The note with it: 96 hours. Here is the method: as §1, §2, §3
The test system of a further assay is MDA-MB-175-VII cells. The description is as above. In kind it is cell-based, human. Particulars: 96 hours. On the procedure: as §1, §2, §3
In a further assay the test system is LUAD-0061AS3 PDX tumors. Nature of the assay: NSCLC PDX model efficacy (SLC3A2-NRG1). In kind it is in vivo, mice. Here is the method:
Characterization of the […] PDX model. H&E staining, TTF-1, and phospho-HER3 IHC (FIG. 5A, left to right). […] (FIG. 5B). Tumor volumes were measured twice weekly and plotted overtime. Results represent the mean±SEM. […] Western blotting was performed twice for each protein and representative immunoblots of phosphorylated (p) and total (t) proteins are shown (FIG. 5C).
(§4) Crushed PDX tumor samples were mixed with Matrigel (50%) and injected into the subcutaneous flank of 6-week-old female NSG (LUAD-0061AS3) or Balb/c nude (OV-10-0050) mice. When tumors reached approximately 100-150 mm3, mice were randomly assigned to groups of 5-8 and treatment was commenced. There were 2 mice per group with bilateral flank tumors for the protein phosphorylation/expression study in the LUAD-0061AS3 PDX model. Drugs were administered once, and then tumors were collected at 2, 24, and 168 hours posttreatment. Afatinib was administered by oral gavage once daily as a suspension (in 0.5% methylcellulose-0.4% Tween-80) on a 5-days-on and 2-days-off schedule. […] Mice were observed daily throughout the treatment period for signs of morbidity and mortality. Tumor length and width and animal weights were measured twice weekly. Tumor volume was calculated using the empirical formula V=length×width 2×0.52. The percentage change in tumor volume of each tumor was calculated using the formula [(V2−V1)/V1)]×100, where V1 is the starting tumor volume and V2 is the final tumor volume.
The 5 mg/kg daily dose of afatinib is equivalent to the human dose of […] daily, which is the maximum approved dose for patients.
The tumor volume as a function of time is illustrated in FIG. 5B, and the AUC computed for each group to facilitate comparison of tumor volume between groups at the last date all groups had surviving animals (day 35) was determined. […] The highest dose of afatinib (15 mg/kg) was also effective at causing regression of six of seven tumors in the.

A further assay has as its system OV-10-0050 PDX tumors. The experiment in a line: HGSOC ovarian PDX model efficacy (CLU-NRG1). On the set-up: average tumor volume at the time of the last treatment: unit not given beside the values. In kind it is in vivo, mice. The note with it: for average tumor volume at the time of the last treatment: day 27.
From the text: IHC characterization of the OV-10-0050 PDX model (FIG. 6A). H&E staining, WT1, and TP53 IHC (left to right). […] (FIG. 6B). Treatment was terminated on day 27 and animals were monitored for tumor regrowth until tumors reached maximum allowable size or until 90 days after treatment initiation. Results represent the mean tumor volume ±SEM. A zoom-in view on tumor volumes during the last 40 days of monitoring of seribantumab-treated groups (right). […] Change in the volume of individual tumors (day 27 vs. volume at start of treatment) (FIG. 6C).
as §4
RT-PCR confirmed the presence of the CLU-NRG1 fusion. Xenograft tissue morphology and IHC markers (positive for WT1 and strong nuclear staining for TP53) were consistent with HGSOC histology (FIG. 6A; Kobel M, et al., Int. J. Gynecol. Pathol. 2016; 35:430-41). […] As with the above experiments in the NSCLC PDX model, the doses of seribantumab used here were lower than the dose that is used in patients. Treatment was terminated at day 27 and tumor growth was monitored for an additional 63 days (90 days after initiation of treatment or once tumors reached the maximum allowable size). The tumor volume as a function of time is illustrated in FIG. 6B, and the AUC was computed for each group to compare tumor volumes between groups at the last date of treatment. […] Forty-one days after treatment began, mice bearing vehicle- and afatinib-treated tumors were sacrificed because of the high tumor burden.

The mark [1] stands for this setting: dosage lower than that used in human trials.

B1: seribantumab: anti-ERBB3 (HER3) fully human monoclonal antibody; heavy and light chains SEQ ID NOs: 12 and 13 (antibody)
heavy: EVQLLESGGGLVQPGGSLRLSCAASGFTFSHYVMAWVRQAPGKGLEWVSSISSSGGWTLYADSVKGRFTISRDNSKNTLYLQMNSLRAEDTAVYYCTRGLKMATIFDYWGQGTLVTVSSASTKGPSVFPLAPCSRSTSESTAALGCLVKDYFPEPVTVSWNSGALTSGVHTFPAVLQSSGLYSLSSVVTVPSSNFGTQTYTCNVDHKPSNTKVDKTVERKCCVECPPCPAPPVAGPSVFLFPPKPKDTLMISRTPEVTCVVVDVSHEDPEVQFNWYVDGVEVHNAKTKPREEQFNSTFRVVSVLTVVHQDWLNGKEYKCKVSNKGLPAPIEKTISKTKGQPREPQVYTLPPSREEMTKNQVSLTCLVKGFYPSDIAVEWESNGQPENNYKTTPPMLDSDGSFFLYSKLTVDKSRWQQGNVFSCSVMHEALHNHYTQKSLSLSPGK
light: QSALTQPASVSGSPGQSITISCTGTSSDVGSYNVVSWYQQHPGKAPKLIIYEVSQRPSGVSNRFSGSKSGNTASLTISGLQTEDEADYYCCSYAGSSIFVIFGGGTKVTVLGQPKAAPSVTLFPPSSEELQANKATLVCLVSDFYPGAVTVAWKADGSPVKVGVETTKPSKQSNNKYAASSYLSLTPEQWKSHRSYSCRVTHEGSTVEKTVAPAECS
Take B1: the IC50 came to 203 µM in the assay with HBECp53 cells (AlamarBlue), 1.4 µM with LUAD-0061AS3 cells (AlamarBlue), 45.2 µM with MCF-7 cells (AlamarBlue) and 0.02 µM with MDA-MB-175-VII cells (AlamarBlue). Also, the effect on growth entry is recorded as “minimal effect” in the assay on HBECp53 cells (no NRG1 fusion), “reduced growth in a dose-dependent manner” in the assay on LUAD-0061AS3 cells (dose-response), “minimal effect” with MCF-7 cells (no NRG1 fusion) and “reduced growth in a dose-dependent manner” with MDA-MB-175-VII cells (dose-response). Also, the values for the tumors with regression entry in the assay with LUAD-0061AS3 PDX tumors (0.75 mg seribantumab twice weekly) and in the assay on LUAD-0061AS3 PDX tumors (1 mg seribantumab twice weekly) were “four of seven” and “six of seven”, respectively. The “efficacy compared with afatinib” value in the assay with LUAD-0061AS3 PDX tumors (1 mg BIW seribantumab vs 15 mg/kg daily afatinib) is “as effective as the 15 mg/kg daily dose of afatinib; also recorded: as effective as the highest dose of afatinib”. In the assay with LUAD-0061AS3 PDX tumors (1 mg seribantumab twice weekly, by day 42), the maximum tumor reduction was 57.2%±2.6%. Moreover, the tumor volume result in the assay with LUAD-0061AS3 PDX tumors (all doses of seribantumab tested (0.6, 0.75, 1 mg twice weekly)) is “bigger decrease in tumor volume”. The tumor regression result with LUAD-0061AS3 PDX tumors (setting [1]) is reported as “more than 50%”; with OV-10-0050 PDX tumors (setting [1]) it was 100%. For the same molecule, the “average tumor volume at the time of the last treatment” value was found to be 1.3±0.3 with OV-10-0050 PDX tumors (1 mg seribantumab twice weekly), 1.9±0.6 in the assay with OV-10-0050 PDX tumors (2.5 mg seribantumab twice weekly), 17.9±14.5 in the assay on OV-10-0050 PDX tumors (5 mg seribantumab twice weekly) and 2.1±0.6 in the assay with OV-10-0050 PDX tumors (10 mg seribantumab twice weekly). The “day on which tumors started to regrow” value with OV-10-0050 PDX tumors (1, 2.5 and 5 mg seribantumab groups, treatment terminated day 27) was no more than 73 days. For the same molecule, the “tumor regrowth after cessation of treatment” value in the assay with OV-10-0050 PDX tumors (highest dose of seribantumab) is “blocked tumor regrowth after cessation of treatment”. Moreover, the tumor growth entry in the assay on OV-10-0050 PDX tumors (seribantumab 1, 2.5, 5, 10 mg twice weekly) is given as “significant tumor shrinkage at all doses tested”. The “tumor growth after treatment was stopped” value in the assay on OV-10-0050 PDX tumors (seribantumab, monitoring after cessation) is reported as “largely repressed for 63 days”. Also, in the assay with OV-10-0050 PDX tumors (two highest dose groups of seribantumab), the “tumors that started to regrow at the end of the study” value is reported as “one of eight”.
